Assay results published in the supplement of paper PMC9112550, “Optimization of the antimicrobial peptide Bac7 by deep mutational scanning” (BMC Biology, 2022).

Test system: Escherichia coli TOP10
Experiment: shrunken log2 fold change of peptide-encoding DNA abundance (4.5 h post-induction vs induction); higher = less antimicrobial activity (less host growth inhibition)
Conditions: time post-induction: 4.5 h; library: site-saturation at positions 5, 18, 19, 20
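Also: peptides expressed intracellularly from a pBAD plasmid library in pooled LB shake-flask culture, induced with 0.3% L-arabinose, DNA abundance read by NGS, three biological replicates, DESeq2 with apeglm shrinkage.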

Sequence	shrunken log2 fold change
RRIRQRPPRLPRPRPRPWIPPRP	0.0265
RRIRLRPPRLPRPRPRPYKKPRP	-0.404
RRIRRRPPRLPRPRPRPYRYPRP	0.0464
RRIRWRPPRLPRPRPRPPKIPRP	0.22
RRIRDRPPRLPRPRPRPPRSPRP	1.11
RRIRTRPPRLPRPRPRPALFPRP	0.000901
RRIRNRPPRLPRPRPRPFELPRP	0.00621
RRIRHRPPRLPRPRPRPAPFPRP	-0.257
RRIRNRPPRLPRPRPRPHDDPRP	0.008
RRIRFRPPRLPRPRPRPIWHPRP	-0.0746
RRIRARPPRLPRPRPRPVHGPRP	0.785
RRIRCRPPRLPRPRPRPHMTPRP	-0.331
RRIRWRPPRLPRPRPRPVSCPRP	0.0517
RRIRKRPPRLPRPRPRPQAKPRP	-0.00692
RRIRDRPPRLPRPRPRPGYHPRP	-0.071
RRIRMRPPRLPRPRPRPGFHPRP	-0.039
RRIRARPPRLPRPRPRPLIDPRP	0.647
RRIRYRPPRLPRPRPRPKEGPRP	-0.186
RRIRKRPPRLPRPRPRPAECPRP	0.33
RRIRWRPPRLPRPRPRPGEKPRP	0.489
RRIRSRPPRLPRPRPRPCMRPRP	0.0526
RRIRMRPPRLPRPRPRPELLPRP	3.52
RRIRHRPPRLPRPRPRPVSSPRP	-0.0295
RRIRERPPRLPRPRPRPMGYPRP	-0.0965
RRIRLRPPRLPRPRPRPGQWPRP	0.17

Sequence	shrunken log2 fold change
RRIRYRPPRLPRPRPRPNKRPRP	-0.75
RRIRRRPPRLPRPRPRPVIPPRP	0.272
RRIRQRPPRLPRPRPRPLEKPRP	-0.0015
RRIRHRPPRLPRPRPRPVFEPRP	-0.153
RRIRDRPPRLPRPRPRPERTPRP	0.12
RRIRPRPPRLPRPRPRPQQRPRP	0.0201
RRIRLRPPRLPRPRPRPLNIPRP	-0.221
RRIRKRPPRLPRPRPRPLKPPRP	0.238
RRIRVRPPRLPRPRPRPKTAPRP	0.0988
RRIRCRPPRLPRPRPRPAGCPRP	0.262
RRIRGRPPRLPRPRPRPKFFPRP	0.36
RRIRWRPPRLPRPRPRPKMDPRP	0.135
RRIRLRPPRLPRPRPRPVFFPRP	0.0612
RRIRARPPRLPRPRPRPRHLPRP	0.11
RRIRARPPRLPRPRPRPCADPRP	0.734
RRIRQRPPRLPRPRPRPDINPRP	-0.412
RRIRQRPPRLPRPRPRPYPRPRP	-0.258
RRIRFRPPRLPRPRPRPDRQPRP	0.0398
RRIRTRPPRLPRPRPRPKTPPRP	-0.0565
RRIRERPPRLPRPRPRPISEPRP	-0.0562
RRIRSRPPRLPRPRPRPKTCPRP	-0.0741
RRIRGRPPRLPRPRPRPDQNPRP	0.00612
RRIRCRPPRLPRPRPRPFGGPRP	0.0285
RRIRMRPPRLPRPRPRPFESPRP	-0.00973
RRIRHRPPRLPRPRPRPQSWPRP	0.0657

Sequence	shrunken log2 fold change
RRIRLRPPRLPRPRPRPHCHPRP	-0.727
RRIRIRPPRLPRPRPRPENVPRP	0.267
RRIRARPPRLPRPRPRPKSGPRP	0.166
RRIRERPPRLPRPRPRPCTRPRP	0.0517
RRIRMRPPRLPRPRPRPNHFPRP	-0.436
RRIRKRPPRLPRPRPRPFYIPRP	-0.44
RRIRRRPPRLPRPRPRPKPEPRP	0.489
RRIRFRPPRLPRPRPRPPQFPRP	0.0547
RRIRNRPPRLPRPRPRPTKSPRP	0.141
RRIRVRPPRLPRPRPRPFDKPRP	-0.0577
RRIRDRPPRLPRPRPRPDNTPRP	-0.103
RRIRHRPPRLPRPRPRPRKWPRP	-0.0137
RRIRMRPPRLPRPRPRPTGWPRP	0.687
RRIRIRPPRLPRPRPRPPHQPRP	0.000816
RRIRERPPRLPRPRPRPKWRPRP	-0.102
RRIRKRPPRLPRPRPRPRSYPRP	-0.134
RRIRQRPPRLPRPRPRPCCMPRP	-0.42
RRIRKRPPRLPRPRPRPFAMPRP	0.359
RRIRLRPPRLPRPRPRPDEVPRP	0.256
RRIRIRPPRLPRPRPRPWGDPRP	-0.38
RRIRQRPPRLPRPRPRPWQVPRP	-0.154
RRIRRRPPRLPRPRPRPDSPPRP	0.28
RRIRIRPPRLPRPRPRPMFHPRP	-0.517
RRIRFRPPRLPRPRPRPNRIPRP	-0.619
RRIRIRPPRLPRPRPRPISTPRP	-1.54

Sequence	shrunken log2 fold change
RRIRNRPPRLPRPRPRPRTEPRP	-0.279
RRIRYRPPRLPRPRPRPCIRPRP	-0.023
RRIRPRPPRLPRPRPRPTKPPRP	0.323
RRIRQRPPRLPRPRPRPQQTPRP	0.178
RRIRARPPRLPRPRPRPYFNPRP	-0.71
RRIRTRPPRLPRPRPRPSHWPRP	-0.148
RRIRYRPPRLPRPRPRPQIYPRP	-0.132
RRIRGRPPRLPRPRPRPYQGPRP	0.0167
RRIRERPPRLPRPRPRPDNCPRP	-0.0268
RRIRSRPPRLPRPRPRPRRGPRP	0.538
RRIRCRPPRLPRPRPRPHLYPRP	1.42
RRIRCRPPRLPRPRPRPRPMPRP	0.443
RRIRLRPPRLPRPRPRPLCEPRP	0.0911
RRIRSRPPRLPRPRPRPAIIPRP	0.0969
RRIRLRPPRLPRPRPRPPVNPRP	0.168
RRIRVRPPRLPRPRPRPEMHPRP	0.209
RRIRFRPPRLPRPRPRPCGTPRP	-0.207
RRIRERPPRLPRPRPRPSDDPRP	-0.0902
RRIRPRPPRLPRPRPRPMGVPRP	0.0399
RRIRQRPPRLPRPRPRPWDFPRP	0.2
RRIRWRPPRLPRPRPRPPTEPRP	0.597
RRIRRRPPRLPRPRPRPLASPRP	0.382
RRIRIRPPRLPRPRPRPNRNPRP	-1.1
RRIRWRPPRLPRPRPRPLDFPRP	0.0518
RRIRKRPPRLPRPRPRPMLYPRP	-0.26

Sequence	shrunken log2 fold change
RRIRHRPPRLPRPRPRPKRNPRP	0.0354
RRIRERPPRLPRPRPRPYVMPRP	-0.401
RRIRYRPPRLPRPRPRPCTKPRP	-1.15
RRIRIRPPRLPRPRPRPCPEPRP	-0.644
RRIRIRPPRLPRPRPRPHLFPRP	-0.359
RRIRYRPPRLPRPRPRPHIKPRP	-0.887
RRIRYRPPRLPRPRPRPIDTPRP	-0.0431
RRIRWRPPRLPRPRPRPQGGPRP	-0.0626
RRIRARPPRLPRPRPRPVNDPRP	0.584
RRIRFRPPRLPRPRPRPLRLPRP	0.891
RRIRYRPPRLPRPRPRPMHFPRP	-0.00783
RRIRRRPPRLPRPRPRPMPVPRP	0.388
RRIRCRPPRLPRPRPRPDACPRP	0.175
RRIRKRPPRLPRPRPRPWIKPRP	-0.00314
RRIRNRPPRLPRPRPRPIWWPRP	-0.141
RRIRCRPPRLPRPRPRPRDQPRP	0.278
RRIRVRPPRLPRPRPRPELIPRP	0.0562
RRIRLRPPRLPRPRPRPRDWPRP	0.847
RRIRLRPPRLPRPRPRPWKLPRP	-0.00968
RRIRERPPRLPRPRPRPMRNPRP	-0.062
RRIRERPPRLPRPRPRPIHNPRP	-0.659
RRIRMRPPRLPRPRPRPHWQPRP	0.161
RRIRYRPPRLPRPRPRPHATPRP	-0.191
RRIRNRPPRLPRPRPRPLIGPRP	-0.0791
RRIRVRPPRLPRPRPRPPKTPRP	0.152
